B1: Chromodomain-helicase-DNA-binding protein 3, residues 374 to 426; numbered along this chain, Q12873 (parent)
chain: YETDHQDYCEVCQQGGEIILCDTCPRAYHLVCLDPELDRAPEGKWSCPHCEKE
B2: Ubiquitin-protein ligase residues 30 to 86; numbered along this chain, Q05086 (parent)
chain: KHLIERYYHQLTEGCGNEACTNEFCASCPTFLRMDNNAAAIKALELYKINAKLCDPH

Variants of: B1
Assay: abundance fitness (aPCA) (normalised: wild type 0, dead -1); higher = more abundant; growth selection in yeast, the domain comes from the species named
Conditions: Homo sapiens

Abundance fitness: each site, then its substitutions
K52: T 0.01; M -0.156; P 0.104; R 0.013; N -0.024; W -0.487; L -0.308; S 0.049; H -0.38; V -0.357
E53: T -0.187; M -0.19; I -0.37; W -0.401; C -0.584; G -0.118; Q -0.118; H -0.426; S -0.48; D -0.374; R -0.276; V -0.309

Variants of: B2
Assay: as above
Conditions: Homo sapiens

Abundance fitness, by site and new letter:
Y8: Q 0.116; N -0.097; E -0.027; K 0.054; S -0.06; L 0.045; F -0.138; H -0.015; W -0.181; P -0.757; T 0.091; I 0.018; A -0.06; D -0.513; R 0.028; G -0.212; V -0.015
G16: A -0.049; N -0.061; R -0.127; E -0.049; P -0.132; Y -0.117; S -0.062; C -0.049; V -0.2; L -0.11; F -0.221; K -0.064; W -0.191; D -0.041; M -0.179; I -0.33; Q -0.059
G14: S -0.946; D -0.945; N -0.849; F -0.865; W -0.942; R -0.966; Q -1.09; V -0.973; T -0.848; E -0.919; L -0.967; H -0.957; A -0.866; I -1.02; Y -1.02
I4: V -0.047; W -0.208; E -0.032; Q 0.058; Y -0.029; P -0.093; A -0.027; N -0.042; R 0.004; L -0.159; K 0.059; F -0.15; S 0.012; C -0.113; M -0.087; T 0.064; G -0.117; D -0.116
E13: P -1.02; Q 0.06; R -0.02; V -0.071; W -0.163; H -0.006; F -0.047; L 0.006; T -0.009; I -0.048; S 0.008; Y -0.01; D 0.055; K 0.041; M -0.093; A 0.029
Y7: S -0.799; K -0.796; R -0.925; W -0.184; N -0.658; A -0.448; L -0.154; C -0.65; M -0.215; G -0.77; F -0.034; E -0.963; D -0.683; Q -0.781; H -0.289
Q10: G -0.311; K -0.5; C -0.274; T -0.123; L -0.198; W -0.765; F -0.329; I -0.15; P -0.86; E -0.868; N -0.127; H -0.148; Y -0.277; D -0.485; V -0.253; S -0.093; R -0.07; A -0.13
A19: S -0.008; N -0.015; F -0.031; H -0.006; G -0.015; D 0.023; C -0.12; P -0.084; E 0.004; K -0.001; M 0.011; V -0.013; W -0.073; L -0.045; I -0.102; R -0.022
H2: C -0.204; I 0.229; P -0.116; R -0.025; L -0.005; T -0.085; A -0.041; V -0.044; Y 0.051; W -0.542; E -0.055; Q 0.025; M -0.03
